The test system of this series is RtrC (Caulobacter crescentus (NA1000?)). Kind of series: EMSA. The following applies: 200 mM NaCl, 50 ng/ul poly(dI-dC), EMSA: 32.5 mM Tris pH 8 (at 4 C), 200 mM NaCl (chases: 30 mM Tris, 150 mM NaCl), 1 mM EDTA, 30% glycerol, 1 mM DTT, 10 ug/ml BSA, 20 C …. Background: In EMSA bound probe runs differently from free probe, usually more slowly.

As a reminder, the Kd is the concentration at which binding is half-saturated. High values mean a looser complex, low ones a tighter complex.

Take hfiA promoter probe, labeled: the Kd turned out to be 45 nM.

For the origin of these results see paper PMC9648850.
